Data taken from patent US20230287095A1 (published 2023).
Where two headings read alike, the source gives them in different places.

Key:
Assay in all cases: ELISA
human pro-EMAPII [1] = target: T1, human pro-EMAPII (human, UniProt Q12904 1-312)
T1 chain: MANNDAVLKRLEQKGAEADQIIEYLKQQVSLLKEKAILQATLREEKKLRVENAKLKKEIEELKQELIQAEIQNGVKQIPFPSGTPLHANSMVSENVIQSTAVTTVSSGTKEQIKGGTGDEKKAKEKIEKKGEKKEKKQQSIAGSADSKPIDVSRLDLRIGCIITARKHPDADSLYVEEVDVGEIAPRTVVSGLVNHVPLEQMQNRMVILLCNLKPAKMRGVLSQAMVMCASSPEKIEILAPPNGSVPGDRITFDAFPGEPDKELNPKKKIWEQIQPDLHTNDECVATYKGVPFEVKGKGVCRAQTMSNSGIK

human pro-EMAPII [2] = target: T1, human pro-EMAPII
human pro-EMAPII [3] = target: T1, human pro-EMAPII
human pro-EMAPII [4] = target: T1, human pro-EMAPII

B1: Humanized HC5 + LC2 (antibody)
heavy: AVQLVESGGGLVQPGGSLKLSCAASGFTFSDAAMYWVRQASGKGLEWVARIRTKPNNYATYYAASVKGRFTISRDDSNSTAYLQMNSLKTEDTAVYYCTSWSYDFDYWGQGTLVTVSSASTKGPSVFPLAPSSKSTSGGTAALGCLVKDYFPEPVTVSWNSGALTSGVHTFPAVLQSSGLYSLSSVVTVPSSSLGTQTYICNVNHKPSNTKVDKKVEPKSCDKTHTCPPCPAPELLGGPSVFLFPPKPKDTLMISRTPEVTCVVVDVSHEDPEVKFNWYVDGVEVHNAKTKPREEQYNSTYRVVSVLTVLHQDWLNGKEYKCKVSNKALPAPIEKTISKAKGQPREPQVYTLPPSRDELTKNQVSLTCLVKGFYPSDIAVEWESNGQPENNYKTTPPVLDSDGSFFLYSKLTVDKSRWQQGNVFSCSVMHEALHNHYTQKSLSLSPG
light: DIVMTQSPLSLPVTPGEPASISCRSSKSLLHSSGKTYLNWYLQKPGQSPQLLIYWMSTRASGVPDRFSGSGSGTDFTLKISRVEAEDVGVYYCQQFLEYPLTFGQGTKLEIKRTVAAPSVFIFPPSDEQLKSGTASVVCLLNNFYPREAKVQWKVDNALQSGNSQESVTEQDSKDSTYSLSSTLTLSKADYEKHKVYACEVTHQGLSSPVTKSFNRGEC
Human pro-EMAPII [1]
  EC50: 0.17 µg/mL

B2: Humanized HC5 + LC1 (antibody, V domains shown)
VH: AVQLVESGGGLVQPGGSLKLSCAASGFTFSDAAMYWVRQASGKGLEWVARIRTKPNNYATYYAASVKGRFTISRDDSNSTAYLQMNSLKTEDTAVYYCTSWSYDFDYWGQGTLVTVSS
VL: DIVMTQSPLSLPVTPGEPASISCRSSKSLLHSSGKTYLNWYLQKPGQSPQLLIYWMSNRASGVPDRFSGSGSGTDFTLKISRVEAEDVGVYYCQQFLEYPLTFGQGTKLEIKR
Human pro-EMAPII [2]
  EC50: 0.163 µg/mL

B3: Humanized HC3 + LC3 (antibody)
heavy: not shown
light: DIVMTQSPLSLPVTPGEPASISCRSSKSLLHSSGKTYLNWYLQKPGQSPQLLIYWMSTRASGVPDRFSGSGSGTDFTLKISRVEAEDVGVYYCQQFLEYPLTFGGGTKVEIKRTVAAPSVFIFPPSDEQLKSGTASVVCLLNNFYPREAKVQWKVDNALQSGNSQESVTEQDSKDSTYSLSSTLTLSKADYEKHKVYACEVTHQGLSSPVTKSFNRGEC
Human pro-EMAPII [3]
  EC50: 0.077 µg/mL

B4: Humanized HC1 + LC2 (antibody)
heavy: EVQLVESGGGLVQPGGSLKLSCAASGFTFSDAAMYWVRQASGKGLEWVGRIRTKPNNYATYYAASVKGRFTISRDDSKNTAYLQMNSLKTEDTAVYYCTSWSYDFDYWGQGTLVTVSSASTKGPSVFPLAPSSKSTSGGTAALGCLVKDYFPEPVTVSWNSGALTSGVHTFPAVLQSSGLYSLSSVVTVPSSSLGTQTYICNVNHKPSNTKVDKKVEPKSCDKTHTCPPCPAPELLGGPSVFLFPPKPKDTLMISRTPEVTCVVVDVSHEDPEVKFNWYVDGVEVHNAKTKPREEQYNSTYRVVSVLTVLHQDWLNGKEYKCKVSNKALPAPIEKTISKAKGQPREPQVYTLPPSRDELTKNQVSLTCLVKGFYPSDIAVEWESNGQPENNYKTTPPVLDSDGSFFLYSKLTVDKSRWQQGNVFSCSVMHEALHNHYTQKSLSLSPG
light: DIVMTQSPLSLPVTPGEPASISCRSSKSLLHSSGKTYLNWYLQKPGQSPQLLIYWMSTRASGVPDRFSGSGSGTDFTLKISRVEAEDVGVYYCQQFLEYPLTFGQGTKLEIKRTVAAPSVFIFPPSDEQLKSGTASVVCLLNNFYPREAKVQWKVDNALQSGNSQESVTEQDSKDSTYSLSSTLTLSKADYEKHKVYACEVTHQGLSSPVTKSFNRGEC
Human pro-EMAPII [1]
  EC50: 0.089 µg/mL

B5: Humanized HC4 + LC4 (antibody)
heavy: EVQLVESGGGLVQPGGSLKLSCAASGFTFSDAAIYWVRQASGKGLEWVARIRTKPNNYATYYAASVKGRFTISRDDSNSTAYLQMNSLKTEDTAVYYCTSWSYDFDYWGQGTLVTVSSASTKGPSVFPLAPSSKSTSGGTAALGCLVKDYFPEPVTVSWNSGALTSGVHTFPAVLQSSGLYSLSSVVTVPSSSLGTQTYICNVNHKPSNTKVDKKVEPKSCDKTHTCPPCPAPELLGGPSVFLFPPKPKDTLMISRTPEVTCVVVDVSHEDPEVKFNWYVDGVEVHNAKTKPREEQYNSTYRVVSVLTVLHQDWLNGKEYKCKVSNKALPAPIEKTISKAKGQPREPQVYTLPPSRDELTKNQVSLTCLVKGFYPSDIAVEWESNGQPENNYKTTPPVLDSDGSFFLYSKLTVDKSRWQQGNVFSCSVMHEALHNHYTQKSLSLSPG
light: DIQMTQSPLSLPVTPGEPASISCRSSKSLLHSSGKTYLNWYLQKPGQSPQLLIYWMSTRASGVPDRFSGSGSGTDFTLKISRVEAEDVGVYYCQQFLEYPLTFGGGTKVEIKRTVAAPSVFIFPPSDEQLKSGTASVVCLLNNFYPREAKVQWKVDNALQSGNSQESVTEQDSKDSTYSLSSTLTLSKADYEKHKVYACEVTHQGLSSPVTKSFNRGEC
Human pro-EMAPII [4]
  EC50: 0.197 µg/mL

B6: Humanized HC2 + LC2 (antibody)
heavy: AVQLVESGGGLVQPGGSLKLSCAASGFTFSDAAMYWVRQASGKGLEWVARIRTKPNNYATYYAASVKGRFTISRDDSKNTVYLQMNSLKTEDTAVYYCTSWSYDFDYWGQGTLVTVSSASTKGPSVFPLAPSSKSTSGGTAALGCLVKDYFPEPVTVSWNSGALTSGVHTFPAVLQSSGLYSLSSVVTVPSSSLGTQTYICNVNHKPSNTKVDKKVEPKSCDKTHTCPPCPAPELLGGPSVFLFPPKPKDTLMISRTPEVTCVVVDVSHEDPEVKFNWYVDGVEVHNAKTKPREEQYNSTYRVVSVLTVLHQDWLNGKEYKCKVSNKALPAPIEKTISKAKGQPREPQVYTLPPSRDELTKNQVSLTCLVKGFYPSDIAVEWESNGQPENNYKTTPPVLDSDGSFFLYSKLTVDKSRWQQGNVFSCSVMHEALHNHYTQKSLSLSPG
light: DIVMTQSPLSLPVTPGEPASISCRSSKSLLHSSGKTYLNWYLQKPGQSPQLLIYWMSTRASGVPDRFSGSGSGTDFTLKISRVEAEDVGVYYCQQFLEYPLTFGQGTKLEIKRTVAAPSVFIFPPSDEQLKSGTASVVCLLNNFYPREAKVQWKVDNALQSGNSQESVTEQDSKDSTYSLSSTLTLSKADYEKHKVYACEVTHQGLSSPVTKSFNRGEC
Human pro-EMAPII [1]
  EC50: 0.112 µg/mL

B7: Humanized HC1 + LC3 (antibody)
heavy: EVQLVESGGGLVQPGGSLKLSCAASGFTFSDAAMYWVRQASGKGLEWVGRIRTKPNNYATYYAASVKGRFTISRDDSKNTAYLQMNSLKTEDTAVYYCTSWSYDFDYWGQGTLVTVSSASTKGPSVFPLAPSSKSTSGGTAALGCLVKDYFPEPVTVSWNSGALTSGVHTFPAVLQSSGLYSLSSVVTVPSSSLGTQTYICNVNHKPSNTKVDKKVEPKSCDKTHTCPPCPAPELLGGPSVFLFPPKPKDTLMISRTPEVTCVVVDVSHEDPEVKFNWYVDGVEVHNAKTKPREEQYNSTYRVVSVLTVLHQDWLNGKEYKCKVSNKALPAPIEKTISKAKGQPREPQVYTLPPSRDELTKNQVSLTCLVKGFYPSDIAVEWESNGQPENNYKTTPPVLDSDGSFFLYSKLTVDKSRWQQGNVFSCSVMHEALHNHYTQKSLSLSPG
light: DIVMTQSPLSLPVTPGEPASISCRSSKSLLHSSGKTYLNWYLQKPGQSPQLLIYWMSTRASGVPDRFSGSGSGTDFTLKISRVEAEDVGVYYCQQFLEYPLTFGGGTKVEIKRTVAAPSVFIFPPSDEQLKSGTASVVCLLNNFYPREAKVQWKVDNALQSGNSQESVTEQDSKDSTYSLSSTLTLSKADYEKHKVYACEVTHQGLSSPVTKSFNRGEC
Human pro-EMAPII [3]
  EC50: 0.108 µg/mL

B8: Humanized HC1 + LC4 (antibody)
heavy: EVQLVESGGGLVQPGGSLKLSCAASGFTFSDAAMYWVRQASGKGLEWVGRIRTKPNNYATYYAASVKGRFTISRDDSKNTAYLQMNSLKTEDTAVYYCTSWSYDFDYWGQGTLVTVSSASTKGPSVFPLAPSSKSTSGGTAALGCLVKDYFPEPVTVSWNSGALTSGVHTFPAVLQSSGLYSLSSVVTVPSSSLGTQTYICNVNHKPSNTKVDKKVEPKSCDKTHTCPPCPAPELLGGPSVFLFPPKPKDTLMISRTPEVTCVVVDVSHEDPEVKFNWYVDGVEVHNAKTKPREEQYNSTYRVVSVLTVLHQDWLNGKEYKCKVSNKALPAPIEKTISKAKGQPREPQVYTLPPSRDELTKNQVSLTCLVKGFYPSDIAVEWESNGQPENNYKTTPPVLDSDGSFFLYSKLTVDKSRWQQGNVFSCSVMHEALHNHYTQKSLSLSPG
light: DIQMTQSPLSLPVTPGEPASISCRSSKSLLHSSGKTYLNWYLQKPGQSPQLLIYWMSTRASGVPDRFSGSGSGTDFTLKISRVEAEDVGVYYCQQFLEYPLTFGGGTKVEIKRTVAAPSVFIFPPSDEQLKSGTASVVCLLNNFYPREAKVQWKVDNALQSGNSQESVTEQDSKDSTYSLSSTLTLSKADYEKHKVYACEVTHQGLSSPVTKSFNRGEC
Human pro-EMAPII [4]
  EC50: 0.113 µg/mL

B9: Humanized HC5 + LC4 (antibody)
heavy: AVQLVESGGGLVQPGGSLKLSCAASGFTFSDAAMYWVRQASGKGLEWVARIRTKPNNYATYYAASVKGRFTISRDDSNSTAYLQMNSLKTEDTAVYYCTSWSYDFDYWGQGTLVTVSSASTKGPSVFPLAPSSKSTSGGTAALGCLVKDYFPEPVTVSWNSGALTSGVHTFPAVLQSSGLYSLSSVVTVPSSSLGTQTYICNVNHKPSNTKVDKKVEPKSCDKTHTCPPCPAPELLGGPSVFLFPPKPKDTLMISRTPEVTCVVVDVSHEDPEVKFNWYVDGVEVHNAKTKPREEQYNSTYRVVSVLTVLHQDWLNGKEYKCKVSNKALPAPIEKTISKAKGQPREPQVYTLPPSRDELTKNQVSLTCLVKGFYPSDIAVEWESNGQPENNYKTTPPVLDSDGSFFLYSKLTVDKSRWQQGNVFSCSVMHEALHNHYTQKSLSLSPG
light: DIQMTQSPLSLPVTPGEPASISCRSSKSLLHSSGKTYLNWYLQKPGQSPQLLIYWMSTRASGVPDRFSGSGSGTDFTLKISRVEAEDVGVYYCQQFLEYPLTFGGGTKVEIKRTVAAPSVFIFPPSDEQLKSGTASVVCLLNNFYPREAKVQWKVDNALQSGNSQESVTEQDSKDSTYSLSSTLTLSKADYEKHKVYACEVTHQGLSSPVTKSFNRGEC
Human pro-EMAPII [4]
  EC50: 0.166 µg/mL

B10: Humanized HC3 + LC2 (antibody)
heavy: not shown
light: DIVMTQSPLSLPVTPGEPASISCRSSKSLLHSSGKTYLNWYLQKPGQSPQLLIYWMSTRASGVPDRFSGSGSGTDFTLKISRVEAEDVGVYYCQQFLEYPLTFGQGTKLEIKRTVAAPSVFIFPPSDEQLKSGTASVVCLLNNFYPREAKVQWKVDNALQSGNSQESVTEQDSKDSTYSLSSTLTLSKADYEKHKVYACEVTHQGLSSPVTKSFNRGEC
Human pro-EMAPII [1]
  EC50: 0.081 µg/mL

B11: Humanized HC3 + LC1 (antibody)
heavy: not shown
light: DIVMTQSPLSLPVTPGEPASISCRSSKSLLHSSGKTYLNWYLQKPGQSPQLLIYWMSNRASGVPDRFSGSGSGTDFTLKISRVEAEDVGVYYCQQFLEYPLTFGQGTKLEIKRTVAAPSVFIFPPSDEQLKSGTASVVCLLNNFYPREAKVQWKVDNALQSGNSQESVTEQDSKDSTYSLSSTLTLSKADYEKHKVYACEVTHQGLSSPVTKSFNRGEC
Human pro-EMAPII [2]
  EC50: 0.082 µg/mL

B12: Humanized HC2 + LC3 (antibody)
heavy: not shown
light: DIVMTQSPLSLPVTPGEPASISCRSSKSLLHSSGKTYLNWYLQKPGQSPQLLIYWMSTRASGVPDRFSGSGSGTDFTLKISRVEAEDVGVYYCQQFLEYPLTFGGGTKVEIKRTVAAPSVFIFPPSDEQLKSGTASVVCLLNNFYPREAKVQWKVDNALQSGNSQESVTEQDSKDSTYSLSSTLTLSKADYEKHKVYACEVTHQGLSSPVTKSFNRGEC
Human pro-EMAPII [3]
  EC50: 0.075 µg/mL

B13: Humanized HC3 + LC4 (antibody)
heavy: not shown
light: DIQMTQSPLSLPVTPGEPASISCRSSKSLLHSSGKTYLNWYLQKPGQSPQLLIYWMSTRASGVPDRFSGSGSGTDFTLKISRVEAEDVGVYYCQQFLEYPLTFGGGTKVEIKRTVAAPSVFIFPPSDEQLKSGTASVVCLLNNFYPREAKVQWKVDNALQSGNSQESVTEQDSKDSTYSLSSTLTLSKADYEKHKVYACEVTHQGLSSPVTKSFNRGEC
Human pro-EMAPII [4]
  EC50: 0.07 µg/mL

B14: Humanized HC4 + LC3 (antibody)
heavy: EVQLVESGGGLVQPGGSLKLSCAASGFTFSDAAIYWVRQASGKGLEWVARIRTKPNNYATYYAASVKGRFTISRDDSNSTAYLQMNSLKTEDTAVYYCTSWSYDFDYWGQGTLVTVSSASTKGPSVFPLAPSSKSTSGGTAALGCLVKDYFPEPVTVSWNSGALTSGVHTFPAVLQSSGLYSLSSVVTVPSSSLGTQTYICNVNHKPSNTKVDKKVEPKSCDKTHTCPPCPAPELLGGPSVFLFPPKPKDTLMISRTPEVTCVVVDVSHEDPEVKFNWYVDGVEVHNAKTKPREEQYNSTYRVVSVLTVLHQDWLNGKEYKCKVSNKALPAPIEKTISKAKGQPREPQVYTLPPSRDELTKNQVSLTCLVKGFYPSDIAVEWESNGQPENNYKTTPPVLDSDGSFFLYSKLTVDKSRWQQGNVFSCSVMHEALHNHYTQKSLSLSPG
light: DIVMTQSPLSLPVTPGEPASISCRSSKSLLHSSGKTYLNWYLQKPGQSPQLLIYWMSTRASGVPDRFSGSGSGTDFTLKISRVEAEDVGVYYCQQFLEYPLTFGGGTKVEIKRTVAAPSVFIFPPSDEQLKSGTASVVCLLNNFYPREAKVQWKVDNALQSGNSQESVTEQDSKDSTYSLSSTLTLSKADYEKHKVYACEVTHQGLSSPVTKSFNRGEC
Human pro-EMAPII [3]
  EC50: 0.229 µg/mL

B15: Humanized HC4 + LC2 (antibody)
heavy: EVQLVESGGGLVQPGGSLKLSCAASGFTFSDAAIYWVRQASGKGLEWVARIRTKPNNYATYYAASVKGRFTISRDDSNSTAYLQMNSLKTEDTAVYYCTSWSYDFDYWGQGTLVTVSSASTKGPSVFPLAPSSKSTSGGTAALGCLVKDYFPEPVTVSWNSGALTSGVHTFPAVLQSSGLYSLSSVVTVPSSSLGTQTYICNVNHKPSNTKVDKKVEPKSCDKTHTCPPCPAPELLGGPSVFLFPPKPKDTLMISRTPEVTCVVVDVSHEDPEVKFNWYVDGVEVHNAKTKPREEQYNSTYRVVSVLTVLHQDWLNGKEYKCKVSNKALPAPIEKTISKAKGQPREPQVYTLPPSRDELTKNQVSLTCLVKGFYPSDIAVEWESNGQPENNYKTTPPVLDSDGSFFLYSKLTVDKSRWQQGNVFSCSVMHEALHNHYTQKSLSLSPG
light: DIVMTQSPLSLPVTPGEPASISCRSSKSLLHSSGKTYLNWYLQKPGQSPQLLIYWMSTRASGVPDRFSGSGSGTDFTLKISRVEAEDVGVYYCQQFLEYPLTFGQGTKLEIKRTVAAPSVFIFPPSDEQLKSGTASVVCLLNNFYPREAKVQWKVDNALQSGNSQESVTEQDSKDSTYSLSSTLTLSKADYEKHKVYACEVTHQGLSSPVTKSFNRGEC
Human pro-EMAPII [1]
  EC50: 0.271 µg/mL

B16: Humanized HC4 + LC1 (antibody, V domains shown)
VH: EVQLVESGGGLVQPGGSLKLSCAASGFTFSDAAIYWVRQASGKGLEWVARIRTKPNNYATYYAASVKGRFTISRDDSNSTAYLQMNSLKTEDTAVYYCTSWSYDFDYWGQGTLVTVSS
VL: DIVMTQSPLSLPVTPGEPASISCRSSKSLLHSSGKTYLNWYLQKPGQSPQLLIYWMSNRASGVPDRFSGSGSGTDFTLKISRVEAEDVGVYYCQQFLEYPLTFGQGTKLEIKR
Human pro-EMAPII [2]
  EC50: 0.198 µg/mL

B17: Humanized HC2 + LC4 (antibody)
heavy: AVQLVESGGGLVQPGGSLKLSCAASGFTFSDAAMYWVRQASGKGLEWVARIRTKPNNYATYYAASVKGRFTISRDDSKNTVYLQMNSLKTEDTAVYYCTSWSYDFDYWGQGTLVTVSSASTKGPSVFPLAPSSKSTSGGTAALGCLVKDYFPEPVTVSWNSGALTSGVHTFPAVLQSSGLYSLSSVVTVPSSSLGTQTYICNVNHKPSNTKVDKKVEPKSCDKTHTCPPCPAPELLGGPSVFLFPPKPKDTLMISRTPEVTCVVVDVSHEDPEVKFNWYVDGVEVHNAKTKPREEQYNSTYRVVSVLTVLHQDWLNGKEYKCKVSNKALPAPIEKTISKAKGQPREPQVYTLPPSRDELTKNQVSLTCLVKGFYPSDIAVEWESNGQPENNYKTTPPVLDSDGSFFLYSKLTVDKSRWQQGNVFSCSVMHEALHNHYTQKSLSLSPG
light: DIQMTQSPLSLPVTPGEPASISCRSSKSLLHSSGKTYLNWYLQKPGQSPQLLIYWMSTRASGVPDRFSGSGSGTDFTLKISRVEAEDVGVYYCQQFLEYPLTFGGGTKVEIKRTVAAPSVFIFPPSDEQLKSGTASVVCLLNNFYPREAKVQWKVDNALQSGNSQESVTEQDSKDSTYSLSSTLTLSKADYEKHKVYACEVTHQGLSSPVTKSFNRGEC
Human pro-EMAPII [4]
  EC50: 0.078 µg/mL

B18: Humanized HC2 + LC1 (antibody)
heavy: not shown
light: DIVMTQSPLSLPVTPGEPASISCRSSKSLLHSSGKTYLNWYLQKPGQSPQLLIYWMSNRASGVPDRFSGSGSGTDFTLKISRVEAEDVGVYYCQQFLEYPLTFGQGTKLEIKRTVAAPSVFIFPPSDEQLKSGTASVVCLLNNFYPREAKVQWKVDNALQSGNSQESVTEQDSKDSTYSLSSTLTLSKADYEKHKVYACEVTHQGLSSPVTKSFNRGEC
Human pro-EMAPII [2]
  EC50: 0.076 µg/mL

B19: Humanized HC1 + LC1 (antibody, V domains shown)
VH: EVQLVESGGGLVQPGGSLKLSCAASGFTFSDAAMYWVRQASGKGLEWVGRIRTKPNNYATYYAASVKGRFTISRDDSKNTAYLQMNSLKTEDTAVYYCTSWSYDFDYWGQGTLVTVSS
VL: DIVMTQSPLSLPVTPGEPASISCRSSKSLLHSSGKTYLNWYLQKPGQSPQLLIYWMSNRASGVPDRFSGSGSGTDFTLKISRVEAEDVGVYYCQQFLEYPLTFGQGTKLEIKR
Human pro-EMAPII [2]
  EC50: 0.098 µg/mL

B20: Humanized HC5 + LC3 (antibody)
heavy: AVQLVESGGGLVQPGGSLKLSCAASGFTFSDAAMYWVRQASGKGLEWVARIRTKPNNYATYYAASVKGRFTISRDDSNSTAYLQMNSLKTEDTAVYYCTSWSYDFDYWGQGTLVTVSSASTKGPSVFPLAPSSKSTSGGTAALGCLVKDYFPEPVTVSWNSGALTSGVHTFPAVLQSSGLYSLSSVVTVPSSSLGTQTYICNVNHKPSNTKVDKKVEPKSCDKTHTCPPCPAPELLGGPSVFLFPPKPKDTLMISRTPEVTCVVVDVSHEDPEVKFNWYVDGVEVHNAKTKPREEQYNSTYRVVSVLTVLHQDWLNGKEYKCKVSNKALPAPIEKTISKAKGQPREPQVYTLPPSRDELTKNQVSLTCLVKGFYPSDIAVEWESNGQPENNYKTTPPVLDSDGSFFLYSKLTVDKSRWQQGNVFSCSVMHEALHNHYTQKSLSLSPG
light: DIVMTQSPLSLPVTPGEPASISCRSSKSLLHSSGKTYLNWYLQKPGQSPQLLIYWMSTRASGVPDRFSGSGSGTDFTLKISRVEAEDVGVYYCQQFLEYPLTFGGGTKVEIKRTVAAPSVFIFPPSDEQLKSGTASVVCLLNNFYPREAKVQWKVDNALQSGNSQESVTEQDSKDSTYSLSSTLTLSKADYEKHKVYACEVTHQGLSSPVTKSFNRGEC
Human pro-EMAPII [3]
  EC50: 0.2 µg/mL
